Test results as given in PMC12676778, “Long-tailed class I myosins rely on tail-mediated phosphoinositide recognition for specific membrane recruitment” (Cell Communication and Signaling : CCS, 2025).
“Also recorded” adds a separate entry of the source.

How the values were obtained:
[1] = target: PI (unphosphorylated phosphatidylinositol) lipid vesicles; assay: Fluorescence-based cosedimentation of myosin-1 tails with lipid vesicles containing PI; conditions: 500 nM tail, accessible phospholipid, read-out: KD, tail binding to PI
Protocol: (§1) Phospholipid binding assays were performed using commercially available lipid vesicles (PolyPIPosomes™, 200 nm diameter; Echelon Biosciences) composed of 95% PE + PC and 5% of the phosphoinositide of interest. Accessible phospholipid concentration was calculated as half of the total phospholipid content. Myosin-1 tail (500 nM) in co-sedimentation buffer (10 mM Tris, pH 7.5, 100 mM NaCl, 1 mM EGTA) was incubated with increasing concentrations of PolyPIPosomes™ (accessible PIP range: 10 nM to 10 mM) at room temperature for 30 min, followed by centrifugation at 25,000 g to separate bound and unbound fractions. Bound myosin-1 tail was quantified either by measuring fluorescence intensity of the supernatant (Jasco FP-6500 fluorimeter, excitation 514 nm) or by western blot of pellet and supernatant fractions using anti-GST antibody as indicated in the experiments. […] Microtubule binding assays employed 100 mM PIPES (pH 6.8), 2 mM MgCl2, 1 mM EGTA, 20 µM paclitaxel, and 1 mM GTP. […] Fluorescence intensities of pellet and supernatant fractions were quantified as described above. […]
(§2) Fig. 1 Myosin-1 tail binding to phosphoinositides. a Representative fluorescence spectra of supernatants from co-sedimentation assays with YFP-tagged myosin-1D tail and increasing concentrations of lipid vesicles containing PI(3,5)P₂. […]

[2] = target: PC, PS lipid vesicles; assay: Cosedimentation of myosin-1 tails with lipid vesicles devoid of phosphoinositides; conditions: 500 nM tail; vesicles without phosphoinositide; read-out: KD, tail binding to PC, PS
Protocol: as §1, §2

[3] = target: PI(3)P lipid vesicles (PolyPIPosomes); assay: Cosedimentation of myosin-1 tails with PI(3)P vesicles; conditions: 500 nM tail; vesicles with 5% phosphoinositide; read-out: KD, tail binding to PI(3)P
Protocol: as §1, §2

[4] = target: PI(4)P lipid vesicles (PolyPIPosomes); assay: Cosedimentation of myosin-1 tails with PI(4)P vesicles; conditions: 500 nM tail; vesicles with 5% phosphoinositide; read-out: KD, tail binding to PI(4)P
Protocol: as §1, §2

[5] = target: PI(5)P lipid vesicles (PolyPIPosomes); assay: Cosedimentation of myosin-1 tails with PI(5)P vesicles; conditions: 500 nM tail; vesicles with 5% phosphoinositide; read-out: KD, tail binding to PI(5)P
Protocol: as §1, §2

[6] = target: PI(3,4)P2 lipid vesicles (PolyPIPosomes); assay: Cosedimentation of myosin-1 tails with PI(3,4)P2 vesicles; conditions: 500 nM tail; vesicles with 5% phosphoinositide; read-out: KD, tail binding to PI(3,4)P2
Protocol: as §1, §2

[7] = target: PI(3,4,5)P3 lipid vesicles (PolyPIPosomes); assay: Cosedimentation of myosin-1 tails with PI(3,4,5)P3 vesicles; conditions: 500 nM tail; vesicles with 5% phosphoinositide; read-out: KD, tail binding to PI(3,4,5)P3
Protocol: as §1, §2

[8] = tested on: PI(3,4,5)P3 lipid vesicles; assay: Competitive binding of myosin-1 tails to PI(3,4,5)P3 vesicles (western blot of supernatant and pellet)
Protocol: Phospholipid binding assays were performed using commercially available lipid vesicles (PolyPIPosomes™, 200 nm diameter; Echelon Biosciences) composed of 95% PE + PC and 5% of the phosphoinositide of interest. Accessible phospholipid concentration was calculated as half of the total phospholipid content. Myosin-1 tail (500 nM) in co-sedimentation buffer (10 mM Tris, pH 7.5, 100 mM NaCl, 1 mM EGTA) was incubated with increasing concentrations of PolyPIPosomes™ (accessible PIP range: 10 nM to 10 mM) at room temperature for 30 min, followed by centrifugation at 25,000 g to separate bound and unbound fractions. Bound myosin-1 tail was quantified either by measuring fluorescence intensity of the supernatant (Jasco FP-6500 fluorimeter, excitation 514 nm) or by western blot of pellet and supernatant fractions using anti-GST antibody as indicated in the experiments. […] Microtubule binding assays employed 100 mM PIPES (pH 6.8), 2 mM MgCl2, 1 mM EGTA, 20 µM paclitaxel, and 1 mM GTP. […] Fluorescence intensities of pellet and supernatant fractions were quantified as described above.
To gain deeper insight into the binding specificity of the myosin tails, we conducted competition experiments in which two tail constructs were simultaneously present in the PIP-binding assay, allowing us to assess their ability to compete for binding to the same lipid species. We performed these experiments using PI(3,4,5)P₃ (PIP₃) as an exemplary lipid, first in the absence and then in the presence of a second tail isoform. Two tail pairs were tested: those of myosin-1B and myosin-1D, and those of myosin-1C and myosin-1D (Figs. 3a, c). […] These findings establish myosin-1D as the dominant binder of PIP₃, capable of outcompeting myosin-1B and myosin-1C for membrane association.
Fig. 3 Competitive binding of myosin-1 tails to PI(3,4,5)P₃. a, c Western blots of supernatant and pellet fractions from lipid vesicles containing PI(3,4,5)P₃ following incubation with 2 µM myosin-1B tail (~ 70 kDa) (a) or myosin-1C tail (~ 70 kDa) (c) in competition with myosin-1D tail (~ 100 kDa). The total accessible PI(3,4,5)P₃ concentration was maintained at 2 µM. b, d Dashed boxes indicate the fraction of myosin-1 tails bound to lipid vesicles in the absence of the other myosin isoform. Orange bars denote the fraction of bound myosin in the presence of the competing myosin TEXT PRINTED IN THE PICTURE: (b) myosin-1D: % myosin bound to PI(3,4,5)P3: 90%; % myosin bound to PI(3,4,5)P3: 86% | (b) myosin-1B: % myosin bound to PI(3,4,5)P3: 71%; % myosin bound to PI(3,4,5)P3: 32% | (d) myosin-1D: % myosin bound to PI(3,4,5)P3: 94%; % myosin bound to PI(3,4,5)P3: 85% | (d) myosin-1C: % myosin bound to PI(3,4,5)P3: 32%; % myosin bound to PI(3,4,5)P3: 9%

[9] = tested on: isolated nuclei from Dictyostelium cells; assay: Binding of YFP-tagged myosin tail constructs to isolated nuclei, confocal microscopy; set-up: species or system Dictyostelium discoideum; conditions: 1 µM tail construct, 30 min
[10] = tested on: microtubules and F-actin; assay: TIRF microscopy of microtubule/F-actin cross-linking by myosin-1 tails; type: biochemical; conditions: 1 µM tail construct
[11] = target: PI(3,5)P2 lipid vesicles (PolyPIPosomes); assay: Cosedimentation of myosin-1 tails with PI(3,5)P2 vesicles (fluorescence or immunoblot detection); conditions: 500 nM tail; vesicles with 5% phosphoinositide; read-out: KD, tail binding to PI(3,5)P2
Protocol: Phospholipid binding assays were performed using commercially available lipid vesicles (PolyPIPosomes™, 200 nm diameter; Echelon Biosciences) composed of 95% PE + PC and 5% of the phosphoinositide of interest. Accessible phospholipid concentration was calculated as half of the total phospholipid content. Myosin-1 tail (500 nM) in co-sedimentation buffer (10 mM Tris, pH 7.5, 100 mM NaCl, 1 mM EGTA) was incubated with increasing concentrations of PolyPIPosomes™ (accessible PIP range: 10 nM to 10 mM) at room temperature for 30 min, followed by centrifugation at 25,000 g to separate bound and unbound fractions. Bound myosin-1 tail was quantified either by measuring fluorescence intensity of the supernatant (Jasco FP-6500 fluorimeter, excitation 514 nm) or by western blot of pellet and supernatant fractions using anti-GST antibody as indicated in the experiments. […] Fluorescence intensities of pellet and supernatant fractions were quantified as described above. […]
as §2
Supplementary Fig. S2. Lipid dot blot assays and comparisons between fluorescence-based detection and immunoblot detection of myosin-1-PI(3,5)P2 interactions. […]

[12] = target: PI(4,5)P2 lipid vesicles (PolyPIPosomes); assay: Cosedimentation of myosin-1 tails with PI(4,5)P2 vesicles; conditions: 500 nM tail; vesicles with 5% phosphoinositide; read-out: KD, tail binding to PI(4,5)P2
Protocol: as §1, §2

[13] = target: microtubules; set-up: method as in Rump et al., 2010; conditions: ref Rump et al., 2010; read-out: KD, tail binding to microtubules; cited from earlier work
[14] = tested on: microtubules; set-up: method as in PMID 21712373; conditions: read-out: Inhibition of the cold-induced depolymerization of microtubules IC50; cited from earlier work
[15] = in presence of competing myosin-1D tail, 2 µM each, PI(3,4,5)P3 2 µM
[16] = single tail 2 µM, absence of other isoform, accessible PI(3,4,5)P3 2 µM

Molecule	Kd [1] [nM]	Kd [2] [nM]	Kd [3] [nM]	Kd [4] [nM]	Kd [5] [nM]	Kd [6] [nM]	Kd [7] [nM]	% myosin bound to PI(3,4,5)P3 [8, 15] [%]	% myosin bound to PI(3,4,5)P3 [8, 16] [%]	association of YFP-tagged tail construct with isolated nuclei [9]	cross-linking of microtubules and actin filaments [10]	Kd [11] [nM]	Kd [12] [nM]	Kd [13] [nM]	IC50 [14] [nM]
Myosin-1B-tail: Recombinant GST-/YFP-tagged tail construct of Dictyostelium discoideum myosin-1B (amino acids 717–1111) (protein, left off: GST, N-terminal, state not stated | YFP, C-terminal, kept) QRAQIAHMFKDKKERQRNSIDRKFTSDYIDFENQFGLQEAMQNAHKKERVVFADTVIKIDRRAKQKNYEMVLTDQALYFVEKSIKKKVLVHTLIRRVGLREIKGVSISTLSDNVIVFHLPEHDQVIENDKKTEIIIVLVEYFKAIGGGSLNVQFSDRINYTLKKGEQKEISFQKSEQCPTLVVKKGGKGLIGTIASGLPSSTDSTPKNYNPNSMSQASSRPAPQQSAGRGRGMPQGAGQPQPQQPQQQQRPMPQPQQGGGARPMPQPQQGGGARPMGAPQQGGAPQQGAGRQLPQPTQQGGAPGGRGAPMGRGAPGGGPAGAGGRPLPTVAKPAPQPSRPTAKALYDYDASSTDELSFKEGDIIFIVQKDNGGWTQGELKSGQKGWAPTNYLQYN	38200 ± 4000	> 100000	8300 ± 1000	2300 ± 400	7700 ± 600	2200 ± 400	1100 ± 200	32	~71	do not bind to nuclei; also recorded: did not associate with the nuclei	not observed				
Myosin-1C-tail: Recombinant GST-/YFP-tagged tail construct of Dictyostelium discoideum myosin-1C (protein, left off: GST, end not stated, state not stated | YFP, end not stated, kept, Recombinant GST-/YFP-tagged tail construct of Dictyostelium discoideum myosin-1C) RYWHDMASRIKNAYRNYKAFQFECSNRIKNAFRNYKLYRQRCAQTIQGYFRAWKQASPFFDLRMQNEQLFQGRKERNRFSMISVRKYFGDYLDVRSQSYFLDAMAEGRNEDVIFSSKSQVMVHPILSANKLSPRFLIVTKQAIYLIKLKQKKNLATYLLDRRVPLAEVTSFSLSSLADNLLVIHTSTQFDVAVTTEFKTELVALINKQKGTTLAVNFGQSIQYFKKKGSNNTVTFLKDEMHKEIFLKKNQFHIASGLPASTTVAKVRKNPSQVSTPSKPIAKPVAKPMVAKPSGGSVIMKKPAPAAPPSGPPVMKKPAPTAPGGAPMMKKPAPAPGGAPMMKKPAPVPGGPAPGGSAIMKPAGGVSKPLPSPTGAPMMKKPAPTAPGGPAPAGAPTPMMKKPAGQPMMKPIAKPQPTPMKKPAAPPPQQYIALYEYDAMQPDELTFKENDVINLIKKVDADWWQGELVRTKQIGMLPSNYVQQI	5400 ± 800	31500 ± 2700	4000 ± 300	400 ± 100	500 ± 100		2500 ± 300	9	~32	do not bind to nuclei; also recorded: did not associate with the nuclei	cross-linking activity	600 ± 100	1100 ± 200	80 ± 50	~2
